Measurements reported in US11912794B2, “Modulation of structured polypeptide specificity” (BicycleRD Limited, priority 2011, dated 2024).
Numbered stars: 1 amine (or outer) side, 2 acyl side, 3 side chain; on linkers, the order of the positions; unused ones are H or OH. Bridge positions count the residues as written; N and C are the ends. Peptide text beside a SMILES is read from it. TBMB = c1c(C[*:1])cc(C[*:3])cc1C[*:2]

target: biotinylated human plasma Kallikrein (Homo sapiens, UniProt P03952); experiment: Phage binding assay of individual clones, randomisation of peptide domains; settings: not given
Text: Library construction: Small phage libraries were generated according to the methods of Heinis et al as described in ‘Cloning of phage libraries’ above. The sficx3ba primer was modified such that the bicycle-encoding portion was based on a parent 5×5 bicycle (5×5: two 5-residue loops) DNA sequence with only 4-6 codons randomized to NNS. The randomized codons were those encoding the peptide domain/motif of interest.
Assay of binding of individual clones: Library transformant colonies, or selection output colonies, were picked and grown as individual cultures in 2TY broth containing selective antibiotic. The picked colonies were DNA-sequenced using a QIAgen PyroMark Q96 DNA sequencer to reveal the amino-acid substitution present in each clone, and were assayed for human plasma Kallikrein binding as follows. The phage-containing supernatant was harvested from the culture and phage were cyclised with tris bromomethyl benzene(TBMB) based on the methods of Heinis et al (Nature Chemical Biology vol. 5 pp 502-507 (2009)). The purified phage from this process were assayed for binding to biotinylated human plasma Kallikrein using a homogeneous plate-based binding assay; assay read-out measured on a BMG Labtech Pherastar FS plate reader. The quantitative binding data from duplicate assay samples was averaged (mean) and expressed as signal:background. Assay data shown is representative of at least 2 independent experiments. The assay data was correlated with the peptide sequences.
The WPAR (SEQ ID NO: 18) motif identified from Example 1 was analysed in the context of the 06-34-03 peptide, in order to identify alternatives or improvements to the WPAR (SEQ ID NO: 18) motif. A library was constructed where positions 1, 6, 7, 8, 9 &10 of 06-34-03 were fixed and positions 2, 3, 4 & 5 were randomised (see ‘Randomisation of peptide domains—Library construction’ in Methods above). Selections against human plasma Kallikrein were performed at a variety of stringencies (see Phage selections' in Methods above). All output sequences were identified and analysed for target binding (see ‘Randomisation of peptide domains—Assay of binding of individual clones’ in Methods above). Table 17 lists each unique sequence, its relative abundance in the selection output (frequency), and a rank number according to target binding strength.
Selections against human plasma Kallikrein were performed with this library in order to study the non-WPAR (SEQ ID NO: 18) determinants of Kallikrein binding, and to isolate the optimal WPAR (SEQ ID NO: 18)-containing peptide sequence. Over 150 selection output sequences were isolated and screened for binding to human plasma Kallikrein (as described in Methods above). The sequences were ranked in order of Kallikrein binding and the top 50 sequences were aligned in Table 19. […]

biotinylated human plasma Kallikrein, sequence (P03952 20-638): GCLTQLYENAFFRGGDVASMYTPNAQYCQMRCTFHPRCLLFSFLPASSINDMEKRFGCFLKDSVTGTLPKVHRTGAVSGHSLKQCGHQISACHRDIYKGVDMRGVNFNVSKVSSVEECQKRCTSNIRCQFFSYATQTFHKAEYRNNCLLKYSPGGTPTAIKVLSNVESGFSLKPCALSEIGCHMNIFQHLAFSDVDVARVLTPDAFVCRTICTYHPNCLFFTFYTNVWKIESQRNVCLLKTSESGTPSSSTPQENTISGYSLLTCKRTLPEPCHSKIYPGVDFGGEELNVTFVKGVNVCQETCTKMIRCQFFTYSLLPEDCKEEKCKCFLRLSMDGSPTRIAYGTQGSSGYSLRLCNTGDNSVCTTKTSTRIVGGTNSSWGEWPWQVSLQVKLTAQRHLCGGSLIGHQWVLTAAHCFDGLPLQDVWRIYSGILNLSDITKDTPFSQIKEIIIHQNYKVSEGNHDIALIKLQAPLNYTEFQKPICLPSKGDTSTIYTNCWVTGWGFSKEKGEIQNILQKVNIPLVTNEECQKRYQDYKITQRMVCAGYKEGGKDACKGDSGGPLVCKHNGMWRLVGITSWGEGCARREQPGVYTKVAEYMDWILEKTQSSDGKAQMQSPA

| Molecule | Kallikrein binding in target binding assay |
| --- | --- |
| CC(C)C[C@@H]1NC(=O)[C@H](CC(=O)O)NC(=O)[C@H](CCC(N)=O)NC(=O)[C@H](Cc2c[nH]cn2)NC(=O)[C@H]([C@@H](C)O)NC(=O)[C@@H]2CSCc3cc(cc(c3)CSC[C@@H](C(=O)N[C@@H](C)C(N)=O)NC1=O)CSC[C@H](NC(=O)[C@H](C)N)C(=O)N[C@@H](CO)C(=O)N[C@@H](Cc1c[nH]c3ccccc13)C(=O)N1CCC[C@H]1C(=O)N[C@@H](C)C(=O)N[C@@H](CCCNC(=N)N)C(=O)N2 [Peptide 06-34-03] (H-ACSWPARCTHQDLCA-NH2; linker 2-8-14 via TBMB; N-terminus and C-terminus assumed) | one of the best sequences |

same assay, conditions: WPAR domain fixed, positions 1, 6, 7, 8, 9 & 10 randomised; top 50

| Molecule | Rank (sequences ranked according to Kallikrein binding) |
| --- | --- |
| SEQ ID NO: 161 (CSWPARCTHSDLC; Synthetic sequence Kallikrein binder containing a WPAR motif) | 48 |
| SEQ ID NO: 123 (CTWPARCTHTDLC; Synthetic sequence Kallikrein binder containing a WPAR motif) | 10 |
| SEQ ID NO: 141 (CPWPARCTHTDLC; Synthetic sequence Kallikrein binder containing a WPAR motif) | 28 |
| SEQ ID NO: 159 (CRWPARCTHTDLC; Synthetic sequence Kallikrein binder containing a WPAR motif) | 46 |
| SEQ ID NO: 144 (CSWPARCTHTELC; Synthetic sequence Kallikrein binder containing a WPAR motif) | 31 |
| SEQ ID NO: 128 (CAWPARCTHTDFC; Synthetic sequence Kallikrein binder containing a WPAR motif) | 15 |
| SEQ ID NO: 143 (CPWPARCTHQNLC; Synthetic sequence Kallikrein binder containing a WPAR motif) | 30 |
| SEQ ID NO: 138 (CVWPARCTHQDLC; Synthetic sequence Kallikrein binder containing a WPAR motif) | 25 |
| SEQ ID NO: 162 (CSWPARCLHDDLC; Synthetic sequence Kallikrein binder containing a WPAR motif) | 49 |
| SEQ ID NO: 154 (CTWPARCLHQHMC; Synthetic sequence Kallikrein binder containing a WPAR motif) | 41 |
| SEQ ID NO: 139 (CTWPARCTHADLC; Synthetic sequence Kallikrein binder containing a WPAR motif) | 26 |
| SEQ ID NO: 127 (CAWPARCTHVDLC; Synthetic sequence Kallikrein binder containing a WPAR motif) | 14 |
| SEQ ID NO: 133 (CLWPARCTHADLC; Synthetic sequence Kallikrein binder containing a WPAR motif) | 20 |
| SEQ ID NO: 137 (CSWPARCTHSHLC; Synthetic sequence Kallikrein binder containing a WPAR motif) | 24 |
| SEQ ID NO: 131 (CQWPARCMHQDMC; Synthetic sequence Kallikrein binder containing a WPAR motif) | 18 |
| SEQ ID NO: 118 (CSWPARCTHADLC; Synthetic sequence Kallikrein binder containing a WPAR motif) | 5 |
| SEQ ID NO: 151 (CAWPARCLHQDWC; Synthetic sequence Kallikrein binder containing a WPAR motif) | 38 |
| SEQ ID NO: 121 (CQWPARCLHTDLC; Synthetic sequence Kallikrein binder containing a WPAR motif) | 8 |
| SEQ ID NO: 146 (CSWPARCLHTELC; Synthetic sequence Kallikrein binder containing a WPAR motif) | 33 |
| SEQ ID NO: 130 (CAWPARCTHADLC; Synthetic sequence Kallikrein binder containing a WPAR motif) | 17 |
| SEQ ID NO: 120 (CAWPARCTHTDLC; Synthetic sequence Kallikrein binder containing a WPAR motif) | 7 |

| Molecule | Rank (sequences ranked according to Kallikrein binding) |
| --- | --- |
| SEQ ID NO: 119 (CSWPARCTHDDLC; Synthetic sequence Kallikrein binder containing a WPAR motif) | 6 |
| SEQ ID NO: 156 (CEWPARCLHTDLC; Synthetic sequence Kallikrein binder containing a WPAR motif) | 43 |
| SEQ ID NO: 149 (CAWPARCTHTHLC; Synthetic sequence Kallikrein binder containing a WPAR motif) | 36 |
| SEQ ID NO: 152 (CDWPARCMHQEFC; Synthetic sequence Kallikrein binder containing a WPAR motif) | 39 |
| SEQ ID NO: 115 (CNWPARCTHQDLC; Synthetic sequence Kallikrein binder containing a WPAR motif) | 1 |
| SEQ ID NO: 160 (CTWPARCTHQAFC; Synthetic sequence Kallikrein binder containing a WPAR motif) | 47 |
| SEQ ID NO: 116 (CHWPARCTHQDLC; Synthetic sequence Kallikrein binder containing a WPAR motif) | 3 |
| SEQ ID NO: 148 (CTWPARCTHTDMC; Synthetic sequence Kallikrein binder containing a WPAR motif) | 35 |
| SEQ ID NO: 153 (CAWPARCTHQTMC; Synthetic sequence Kallikrein binder containing a WPAR motif) | 40 |
| SEQ ID NO: 117 (CPWPARCTHQDLC; Synthetic sequence Kallikrein binder containing a WPAR motif) | 4 |
| SEQ ID NO: 158 (CSWPARCTHAEMC; Synthetic sequence Kallikrein binder containing a WPAR motif) | 45 |
| SEQ ID NO: 126 (CSWPARCLHTDLC; Synthetic sequence Kallikrein binder containing a WPAR motif) | 13 |
| SEQ ID NO: 142 (CAWPARCTHYDLC; Synthetic sequence Kallikrein binder containing a WPAR motif) | 29 |
| SEQ ID NO: 145 (CAWPARCMHDDLC; Synthetic sequence Kallikrein binder containing a WPAR motif) | 32 |
| SEQ ID NO: 155 (CSWPARCVHQDMC; Synthetic sequence Kallikrein binder containing a WPAR motif) | 42 |
| SEQ ID NO: 208 (CSWPARCTHQDLC; Synthetic sequence 06-34-03) | 2 |
| SEQ ID NO: 125 (CAWPARCLHDDLC; Synthetic sequence Kallikrein binder containing a WPAR motif) | 12 |
| SEQ ID NO: 132 (CQWPARCTHSDLC; Synthetic sequence Kallikrein binder containing a WPAR motif) | 19 |
| SEQ ID NO: 147 (CSWPARCIHQDLC; Synthetic sequence Kallikrein binder containing a WPAR motif) | 34 |
| SEQ ID NO: 122 (CLWPARCTHQDLC; Synthetic sequence Kallikrein binder containing a WPAR motif) | 9 |
| SEQ ID NO: 129 (CMWPARCMHQDLC; Synthetic sequence Kallikrein binder containing a WPAR motif) | 16 |
